Measurements: article PMC10849960 (2023)
Values belong to the binder of their own block, whether it stands above or below them. Ends that are not written are not given here.

Columns and labels:
[1] = target: T1, Mcl-1 (UniProt Q07820 1-350); assay: FP
T1 chain: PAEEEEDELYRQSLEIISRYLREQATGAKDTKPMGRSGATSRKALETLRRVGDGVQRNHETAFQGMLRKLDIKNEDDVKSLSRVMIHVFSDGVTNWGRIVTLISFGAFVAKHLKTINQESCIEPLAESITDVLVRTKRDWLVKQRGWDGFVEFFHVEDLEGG

[2] = target: 29; assay: FP
[3] = target: 411; assay: FP
[4] = target: 361; assay: FP
[5] = target: Hallucinated Bid binder (7 nM); assay: ITC
[6] = target: 29; assay: ITC
[7] = target: 411; assay: ITC
[8] = target: T1, Mcl-1; assay: ITC
[9] = target: 361; assay: ITC; 10 °C
[10] = target: best parametrically designed PTH binder; assay: split NanoBiT

Kd [1]: 106 nM | Kd [2]: 40 nM | Kd [3]: 23 nM | Kd [4]: 490 nM | Kd [5]: 25 nM | Kd [6]: 180 nM | Kd [7]: 410 nM | Kd [8]: 770 nM | Kd [9]: 1200 nM
B1: Bid BH3 peptide (peptide)
peptide: SESQEDIIRNIARHLAQVGDSMDRSIPPGLVNGL
modifications: also: fluorescently labelled (label and position not shown)

Kd [10]: > 1000 nM
B2: parathyroid hormone (PTH) (peptide)
peptide: SVSEIQLMHNLGKHLNSMERVEWLRKKLQDVHNF
modifications: also: fluorescently labelled (label and position not shown)
